According to patent US20230048200:

Target: Human type 1 atelo-collagen (UniProt P02452)
Sequence (P02452 179-1192, chain 1 of 2): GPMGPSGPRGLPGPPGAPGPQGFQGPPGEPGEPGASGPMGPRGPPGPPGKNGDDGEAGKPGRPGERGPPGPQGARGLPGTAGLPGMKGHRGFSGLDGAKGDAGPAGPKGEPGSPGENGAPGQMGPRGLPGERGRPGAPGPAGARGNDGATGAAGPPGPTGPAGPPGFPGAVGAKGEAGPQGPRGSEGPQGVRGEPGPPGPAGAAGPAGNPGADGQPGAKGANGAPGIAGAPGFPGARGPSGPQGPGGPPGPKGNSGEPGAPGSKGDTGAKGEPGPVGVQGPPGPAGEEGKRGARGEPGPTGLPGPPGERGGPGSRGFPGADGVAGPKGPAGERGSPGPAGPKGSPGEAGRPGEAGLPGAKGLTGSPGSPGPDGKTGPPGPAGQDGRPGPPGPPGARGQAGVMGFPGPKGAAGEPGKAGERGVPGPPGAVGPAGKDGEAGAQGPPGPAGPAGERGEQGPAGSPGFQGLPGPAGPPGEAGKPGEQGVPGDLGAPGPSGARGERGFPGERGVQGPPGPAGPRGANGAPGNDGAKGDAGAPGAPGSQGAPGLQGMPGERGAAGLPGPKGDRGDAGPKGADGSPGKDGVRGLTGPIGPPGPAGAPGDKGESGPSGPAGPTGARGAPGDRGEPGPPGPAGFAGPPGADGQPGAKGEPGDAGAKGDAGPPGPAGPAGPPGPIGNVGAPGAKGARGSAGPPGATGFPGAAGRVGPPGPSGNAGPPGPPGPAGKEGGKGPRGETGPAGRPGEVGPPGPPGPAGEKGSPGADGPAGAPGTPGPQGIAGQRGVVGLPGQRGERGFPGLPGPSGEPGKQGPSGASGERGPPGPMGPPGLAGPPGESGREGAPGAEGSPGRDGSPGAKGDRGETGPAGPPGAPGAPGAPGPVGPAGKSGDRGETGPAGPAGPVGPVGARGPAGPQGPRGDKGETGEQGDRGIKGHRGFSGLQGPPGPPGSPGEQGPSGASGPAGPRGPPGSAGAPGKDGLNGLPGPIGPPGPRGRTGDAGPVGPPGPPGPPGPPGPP
Sequence (chain, as listed by the source, chain 2 of 2): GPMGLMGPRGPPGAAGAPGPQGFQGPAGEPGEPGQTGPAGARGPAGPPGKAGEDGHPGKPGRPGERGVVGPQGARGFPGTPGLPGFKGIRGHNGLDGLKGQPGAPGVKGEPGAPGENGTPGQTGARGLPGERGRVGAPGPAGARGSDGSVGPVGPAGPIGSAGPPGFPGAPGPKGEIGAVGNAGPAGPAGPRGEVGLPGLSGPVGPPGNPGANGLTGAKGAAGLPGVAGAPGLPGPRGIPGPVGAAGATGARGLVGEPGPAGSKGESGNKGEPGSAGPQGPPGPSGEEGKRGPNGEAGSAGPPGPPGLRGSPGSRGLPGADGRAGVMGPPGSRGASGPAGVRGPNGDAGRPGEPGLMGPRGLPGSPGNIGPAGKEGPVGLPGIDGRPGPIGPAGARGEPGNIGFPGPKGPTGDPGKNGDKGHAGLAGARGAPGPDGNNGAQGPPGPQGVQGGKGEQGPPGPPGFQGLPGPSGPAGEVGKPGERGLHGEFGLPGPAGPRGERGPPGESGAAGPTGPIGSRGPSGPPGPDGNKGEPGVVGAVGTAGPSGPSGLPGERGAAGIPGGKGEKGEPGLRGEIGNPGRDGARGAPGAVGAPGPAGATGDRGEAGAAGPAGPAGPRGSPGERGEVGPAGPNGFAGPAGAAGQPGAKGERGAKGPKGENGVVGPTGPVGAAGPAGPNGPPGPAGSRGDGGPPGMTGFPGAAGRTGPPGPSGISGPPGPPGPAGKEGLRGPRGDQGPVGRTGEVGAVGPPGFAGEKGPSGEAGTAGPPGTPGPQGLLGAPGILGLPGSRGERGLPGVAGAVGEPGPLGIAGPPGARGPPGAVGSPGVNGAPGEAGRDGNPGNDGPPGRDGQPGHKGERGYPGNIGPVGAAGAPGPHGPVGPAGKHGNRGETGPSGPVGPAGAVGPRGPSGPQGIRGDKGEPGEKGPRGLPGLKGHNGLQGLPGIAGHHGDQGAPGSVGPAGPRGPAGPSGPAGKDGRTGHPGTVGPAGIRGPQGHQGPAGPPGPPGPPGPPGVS

Substance: matrix metalloproteinase-1 (MMP-1), activated with 2 mM APMA
- reduction in the full length alpha1(I) and alpha2(I) chains (SDS-PAGE, band quantitation): an approximately 7.4-fold (over 80%) reduction in the full length of these chains when collagen was treated with MMP-1
